{"source": "patent US20170082621A1", "key": {"[1]": {"molecular_target": "Helicobacter pylori neutrophil-activating protein (HP-NAP) of H. pylori 26695 (Helicobacter pylori strain 26695) (UniProt P43313)", "assay": "cell-based or functional assay"}, "[2]": {"molecular_target": "HP-NAPE97GY101H (Helicobacter pylori strain 26695) (UniProt P43313)", "assay": "western blot of E. coli lysates, normalised by Ponceau S to wild-type HP-NAP"}, "[3]": {"molecular_target": "HP-NAPY101H (Helicobacter pylori strain 26695) (UniProt P43313)", "assay": "western blot of E. coli lysates, normalised by Ponceau S to wild-type HP-NAP"}, "[4]": {"molecular_target": "HP-NAPE97GY101H (Helicobacter pylori strain 26695) (UniProt P43313)", "assay": "recombinant HP-NAP-based ELISA, antibody X at 600 ng/ml"}, "[5]": {"molecular_target": "HP-NAPY101H (Helicobacter pylori strain 26695) (UniProt P43313)", "assay": "recombinant HP-NAP-based ELISA, antibody X at 600 ng/ml"}}}
{"substance": "antibody X, commercial IgG/M2 monoclonal antibody (Sigma, F-3165)", "values": [{"measurement": "inhibition of ROS production upon two hours of HP-NAP stimulation (H2DCF-DA fluorescence)", "setting": "[1]", "result": 93.2, "unit": "%"}, {"measurement": "western-blot signal intensity compared to wild-type HP-NAP", "setting": "[2]", "result": 9, "unit": "%"}, {"measurement": "western-blot signal intensity compared to wild-type HP-NAP", "setting": "[3]", "result": 11, "unit": "%"}, {"measurement": "ELISA signal compared to wild-type HP-NAP", "setting": "[4]", "result": 33, "unit": "%"}, {"measurement": "ELISA signal compared to wild-type HP-NAP", "setting": "[5]", "result": 60, "unit": "%"}]}
